Positions count from the first letter of the chain named. Blank lines part the entries; values can stand above or below the binder they belong to. Ends that are not written are not given here.
T1: PCNA1–2 heterodimer of S. solfataricus (S. solfataricus, UniProt P57766 1-249; Q97Z84 1-245)
T1 sequence 1: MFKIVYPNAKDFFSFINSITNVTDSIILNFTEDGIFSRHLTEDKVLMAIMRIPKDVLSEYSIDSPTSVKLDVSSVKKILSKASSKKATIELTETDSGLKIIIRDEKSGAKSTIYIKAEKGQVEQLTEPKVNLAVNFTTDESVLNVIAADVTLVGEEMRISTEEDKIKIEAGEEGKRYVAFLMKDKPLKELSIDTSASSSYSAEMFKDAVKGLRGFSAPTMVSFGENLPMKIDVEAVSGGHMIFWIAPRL
T1 sequence 2: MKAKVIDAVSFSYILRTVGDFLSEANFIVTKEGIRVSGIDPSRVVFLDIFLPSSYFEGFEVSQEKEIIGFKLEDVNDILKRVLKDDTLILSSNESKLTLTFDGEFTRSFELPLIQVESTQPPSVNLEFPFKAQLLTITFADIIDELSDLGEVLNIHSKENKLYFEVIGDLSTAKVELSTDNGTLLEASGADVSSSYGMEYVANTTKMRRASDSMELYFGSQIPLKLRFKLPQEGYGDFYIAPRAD

T2: PCNA_(1–2-3) heterotrimer of S. solfataricus (S. solfataricus, UniProt P57766 1-249; Q97Z84 1-245; P57765 1-244)
T2 sequence 1: T1 sequence 1
T2 sequence 2: T1 sequence 2
T2 sequence 3: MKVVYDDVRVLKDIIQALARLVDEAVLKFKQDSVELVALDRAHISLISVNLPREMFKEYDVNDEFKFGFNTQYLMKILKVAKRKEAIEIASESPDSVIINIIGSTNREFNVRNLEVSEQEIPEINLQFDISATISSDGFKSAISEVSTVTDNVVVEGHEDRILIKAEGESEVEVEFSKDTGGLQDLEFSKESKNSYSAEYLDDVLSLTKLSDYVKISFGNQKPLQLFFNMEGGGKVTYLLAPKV

T3: PCNA heterotrimer containing PCNA2 S42C (S. solfataricus, UniProt P57766 1-249; Q97Z84 1-245; P57765 1-244, S42C)
T3 sequence 1: T1 sequence 1
T3 sequence 2: T1 sequence 2 with S42C
T3 sequence 3: T2 sequence 3

T4: PCNA1 subunit of S. solfataricus PCNA (S. solfataricus, UniProt P57766 1-249)
T4 sequence: T1 sequence 1

B1: DNA ligase from S. solfataricus (Lig), wild type (enzyme)
chain: MEFKVIAEYFDKLEKISSRLQLTALLADLLSKSDKTIIDKVVYIIQGKLWPDFLGYPELGIGEKFLIKAISIATNTDENSVENLYKTIGDLGEVARRLKSKQQSTGILGFLGTTSKESLTVDEVYSTLSKVALTTGEGSRDLKIRLLAGLLKKADPLEAKFLVRFVEGRLRVGIGDATVLDAMAIAFGGGQSASEIIERAYNLRADLGNIAKIIVEKGIEALKTLKPQVGIPIRPMLAERLSNPEEILKKMGGNAIVDYKYDGERAQIHKKEDKIFIFSRRLENITSQYPDVVDYVSKYIEGKEFIIEGEIVAIDPESGEMRPFQELMHRKRKSDIYEAIKEYPVNVFLFDLMYYEDVDYTTKPLEARRKLLESIVKPNDYVKIAHHIQANNVEDLKSFFYRAISEGGEGVMVKAIGKDAIYQAGARGWLWIKLKRDYQSEMADTVDLVVVGGFYGKGKRGGKISSLLMAAYNPKTDSFESVCKVASGFSDEQLDELQKKLMEIKRDVKHPRVNSKMEPDIWVEPVYVAEIIGSEITISPLHTCCQDVVEKDAGLSIRFPRFIRWRDDKSPEDATTTDEILEMYNKQPKKKIESPAVDESV
B2: Lig 337 Y-C mutant (enzyme, S. solfataricus)
chain: B1 chain with Y337C
B3: Lig 145 R-L mutant (enzyme, S. solfataricus)
chain: B1 chain with R145L
B4: Lig 145 R-D mutant (enzyme, S. solfataricus)
chain: B1 chain with R145D
B5: Lig 338 E-C mutant (enzyme, S. solfataricus)
chain: B1 chain with E338C
B6: PCNA2 subunit of S. solfataricus PCNA (natural protein)
chain: T1 sequence 2
B7: PCNA3 subunit of S. solfataricus PCNA (natural protein)
chain: T2 sequence 3

Tests used:
[1] = target: T1, PCNA1–2 heterodimer of S. solfataricus; experiment: fluorescence polarisation
[2] = target: T2, PCNA_(1–2-3) heterotrimer of S. …; experiment: fluorescence polarisation
[3] = target: B7; experiment: fluorescence polarisation
[4] = target: T2, PCNA_(1–2-3) heterotrimer of S. …; experiment: SEC-MALS
[5] = target: T3, PCNA heterotrimer containing PCNA2 S42C; experiment: cross-linking
[6] = target: T2, PCNA_(1–2-3) heterotrimer of S. …; experiment: SEC
[7] = target: T4, PCNA1 subunit of S. solfataricus PCNA; experiment: cryo-EM structure
[8] = target: B1; experiment: negative stain electron microscopy
[9] = target: B6; experiment: cryo-EM structure

- Kd [1]: 177 ± 74.4 µM
- Kd [2]: 13.1 ± 2.5 µM
- Kd [3]: 32.5 ± 6.6 µM
Binder: KSKQQSTGILGFLGTTS (also: 6-FAM label, position not given here) [fluorescently labeled Lig loop peptide (17 residues, PIP motif)]

Binder: B1
- stoichiometry N [4]: 1

Binder: B2
- binding result [5]: binds

Binder: B3
- binding result [6]: binds

Binder: B4
- binding result [6]: binds

Binder: B5
- binding result [5]: binds

Binder: B6
- binding result [7]: binds
- binding result [8]: binds

Binder: B7
- binding result [7]: binds
- binding result [9]: binds
- binding result [8]: binds
